Patent US20260041732A1, “USE OF APELIN FOR THE TREATMENT OF LYMPHEDEMA” (INSTITUT NATIONAL DE LA SANTE ET DE LA RECHERCHE MEDICALE, priority 2022, published 2026)

What was measured:
[1] = system: Human dermal lymphatic endothelial cells (HDLEC); assay: Bulk RNA-sequencing, differential gene expression and GO analysis; type: cell-based
Protocol: Human dermal lymphatic endothelial cells (HDLEC) (single donor, juvenile foreskin, Promocell, C-12216, >95% of the cells are CD31 positive and podoplanin positive) were cultured in Endothelial Cell Media MV2 (EGM-MV2, Promocell, C-22121). NIH3T3 were cultured in Dulbecco's modified Eagle's medium (DMEM, Sigma, D6429) supplemented with 10% fetal bovine serum (FBS, Gibco, 10270-06) and 1% penicillin-streptomycin. Endothelial cells were used at passage 3-6 and human fibroblasts were used at passage 4-7. Cells were cultured at 37° C. in a 5% CO2 incubator. Culture medium was changed 3 times a week, and the cells were passaged ⅓. For collecting conditioned media, NIH3T3 were grown in 10 cm dishes, after reaching confluence, medium was removed and the cells were washed once with PBS. NIH3T3 were cultured overnight in 5 mL reduced serum medium optiMEM (Gibco), the medium was then collected and used for experiments. HDLEC were treated with 50% conditioned media/50% MV2-05% FBS. Total RNA from HDLEC transduced or not with Apelin Lentivector were prepared using the RNeasy mini kit (Qiagen 74106). Total RNA were then subjected to ribosomal-RNA depleted RNA sequencing (RNA-Seq) protocol performed by Genewiz company using Illumina HiSeq, PE 2×150 configuration. Sequence reads were trimmed to remove possible adapter sequences and nucleotides with poor quality using Trimmomatic v.0.36. The trimmed reads were mapped to the Homo sapiens GRCh38 reference genome available on ENSEMBL using the STAR aligner v.2.5.2b. The STAR aligner is a splice aligner that detects splice junctions and incorporates them to help align the entire read sequences. BAM files were generated as a result of this step. Unique gene hit counts were calculated by using feature Counts from the Subread package v.1.5.2. The hit counts were summarized and reported using the gene_id feature in annotation file. Only unique reads that fell within exon regions were counted. Distribution of read counts in libraries were examined before and after normalization. The original read counts were normalized to adjust for various factors such as variations of sequencing yield between samples. These normalized read counts were used to accurately determine differentially expressed genes. Data quality assessments were performed to detect any samples that are not representative of their group, and thus, may affect the quality of the analysis. The overall similarity among samples were assessed by the Euclidean distance between samples. This method was used to examine which samples are similar/different to each other and if they fit to the expectation from the experiment design. The shorter the distance, the more closely related the samples are. Samples were then clustered by using the distance. A principal component analysis was also performed to reveal the similarity between samples based on the distance matrix. After extraction of gene hit counts, the gene hit counts table was used for downstream differential expression analysis. Using DESeq2, a comparison of gene expression between Apelin transduced LEC against non-transduced LEC was performed. The Wald test was used to generate p-values and log2 fold changes. […] The global transcriptional change across the two groups compared was visualized by a volcano plot. Each data point in the volcano plot represents a gene. The log2 fold change of each gene is represented on the x-axis and the log10 of its adjusted p-value is on the y-axis.

E2F8 = assay: Chromatin immunoprecipitation (ChIP) with E2F8 antibody; type: cell-based, human; details: APELIN-overexpressing HDLEC
Protocol: Human dermal lymphatic endothelial cells (HDLEC) non transduced or transduced with Apelin Lentivector, were crosslinked for 15 min using 1% formaldehyde directly in the culture medium. 0.125 M of Glycine were then added for 5 min. After two washes with cold PBS, cells were scraped and frozen at −80° C. Cells were lysed to ChIP-IT Express Magnetic Chromatin
Immunoprecipitation kit (Active Motif 53008). Optimal sonication conditions were determined previously in order to obtain DNA fragments of about 500 bp. Cells were sonicated in 350 μl final volume of Shearing buffer specific to the kit, using Diagenode Bioruptor Sonicator (7 cycles, 30 sec ON, 30 sec OFF in a water bath). DNA concentration was determined using a Nanodrop and 25 μg of chromatin were used by reaction. Experiments were then performed according to the manufacturer protocol. 4 μg of E2F8 antibody (Abcam, AB 109596) were used by ChIP reaction. 10 μl of each sample were kept as Input. Reactions were incubated over night at 4° C. A mock sample without antibody was processed similarly. Prior to qPCR, DNA was purified using the Active Motif Chromatin IP DNA purification kit (58002), and eluted in 50 μl of DNase/RNase free water. 2 μl of purified chromatin was used for qPCR. In some experiments, ChIP reactions were supplemented with 10 ng of Drosophila melanogaster chromatin (spike in chromatin, Active motif, 08221011), and 1 μg of an antibody recognizing H2Av, a Drosophila specific histone variant, (spike in antibody, active motif, 61686), as an internal control for ChIP normalization.
HDLEC were seeded in 6-well plates at 100 000 cells/well. After 24 h, cells were transduced with 1 mL of Apelin lentivector diluted in 1 mL of OptiMEM Media in the presence of proteamine sulfate at a final concentration of 5 μg/mL. The Control cells (NT) non transduced with the Apelin Lentivector were processed at the same time and following the same protocol; in this case 2 mL of OptiMEM and 5 μg/mL of proteamine sulfate were added to the cells. The media was replaced after 24 h. […]

B1: APELIN: bioactive peptide apelin, endogenous ligand of APJ; applied to HDLEC as conditioned media from LV-Apelin transduced NIH3T3 or by transduction (protein, listed as Homo sapiens)
chain: MNLRLCVQALLLLWLSLTAVCGGSLMPLPDGNGLEDGNVRHLVQPRGSRNGPGPWQGGRRKFRRQRPRLSHKGPMPF
**Q.** With B1 as the molecule, how does the “GO analysis of down regulated genes” value [1] read?
**A.** no biological process was significantly affected

**Q.** And the “GO analysis for biological process, upregulated genes” value ([1]; FDR<0.05)?
**A.** enriched (FDR<0.05) for terms related to extracellular matrix (ECM) remodelling and signalisation

**Q.** What about the “number of genes up regulated by both apelin and VEGF-C” value ([1]; HDLEC, conditioned media) of the same molecule?
**A.** 43 genes

**Q.** What about the “number of genes up regulated by both apelin and apelin+VEGF-C” value ([1]; HDLEC, conditioned media) of the same molecule?
**A.** 31 genes

**Q.** What about the “number of genes up regulated by both apelin, VEGF-C and apelin+VEGF-C” value ([1]; HDLEC, conditioned media) of the same molecule?
**A.** 19 genes

**Q.** What about the “expression of E2F8” value ([1]; LEC) of the same molecule?
**A.** stimulated

**Q.** What about the “expression of genes related to VEGFC maturation (ADAMTS2, CCBE1)” value ([1]; compared to WT) of the same molecule?
**A.** improved

**Q.** And the “number of genes deregulated” value ([1]; conditioned media vs control NIH3T3 media, p.adj<0.05 and Log2 fold change<-0.5 or >0.5)?
**A.** 217 genes

**Q.** And the “number of genes down regulated” value ([1]; p.adj<0.05, Log2 fold change <-0.5)?
**A.** 123 genes

**Q.** What about the “number of genes up regulated” value ([1]; p.adj<0.05, Log2 fold change >0.5) of the same molecule?
**A.** 94 genes

**Q.** What about the “E2F8 binding on FLT4” value (E2F8) of the same molecule?
**A.** no binding

**Q.** What about the “E2F8 binding to CCBE1 promoter” value (E2F8) of the same molecule?
**A.** significantly increased

**Q.** And the “E2F8 binding to E2F1 transcription factor promoter” value (E2F8)?
**A.** induced
